These results are taken from a protein production outcome set (Wang et al. 2014).

The nature of this data set: label from the status in PepcDB records.

As to “MSIEIWITIIVFFLTMIVIFWRPRGLNEAWPAAIGAGIILITGLVSKPDVIDIVSKIGGASITILATIVMAVILESFGFFHWSAAKLANLAKGSGRRLYWYIQLLCFLMTLLFNNDGSILITTPILILLLKNLQLKPHQQIPYLLSGALIATASSAPIGESNIVNLIALNIVNMTLYMHTAMMFVPATLGLLFMSWLMYSVLKKKLPKKLPVSSYDIEEIFFTKNFHPLKGNNSVDTKQKRTRFMLKVLGFVFLMRCLLFVASFLSIPIEIVAVLGSLVLLIWRWYYLRTNPVDILKKTPWHILIFAFSMYVIIYGLHNAGLTAALVQWLEPIVNQHLLYASFAMGGLVSILSNVFNNHPALMIGTITLTEMGLDPVTLKTIYLANIIGSDIGSLLLPIGTLASLIWMYILKQNKIKVKWKDYLSVSLIVIPLTTVVTLFLLFYWVHLFFAL”, the protein production result is on record as “failed”. The result for “MSIEMKTQLGTVDVSKDVVATIAGGAAVDCYGIVGMASQKQIKDGLSELLGRENFRRGVVIREEEDEIHIDMYIIVSYGTKISEVAYNVQTKVKYQLETMLGIDVDSVNIFVQGVRVTNPLEHHHHHH” reads “failed”; that for “MSIFNKDALSSFFGLSGEEDDYYDNYEEYEERKAVNEPPRRAARPKPQRPVQQQESYSQPAYTQQSEPVVEKPSARYRSAEAHQERDTQQAAYTEKKVVSMRSSNQSATTNTRRAQESTANAKTHKITIIEPRVYSEAMSIAKHLFAEEAVLVNFTLVEEDQARRIVDFLTGTVYALDGDIQRVGNEIFLCTPANMEIDSATAQSLANKQFFDFLEHHHHHH”, “failed”. In the case of “MSIGLSLTFGLYLLVLVGIGVYFFLRTETRRLTDYMLAGRDVGTWPLALSEVASVASGWTFFAWVGVGFTTGLHGLWFSMAMLVVVLFLYRYVAPTFRRQSEALDSQTVVDHLALVFRDSPWGPRIRWTATLAVVVFMASYIGAQIIAVGEAMETGLGLNYAVSVGAGGLAVALYTTLGGFDASVWTDFVQGLLVILAALALPLVAIAEIGGWGAFVTAVRAADPTLLSMTAGQTGTALALSVGSWLAFALGALGQPHGLMRFQAIRSERLLSRASVIALAFQALRLTVPLFIGMAGRVLYGSMNDPESAAMEMMVQLFPDWFAGLLLAGIIGAVLSTSDSMMLVTSADLTRLYETQLAGGVLPARMIRLGRGIVGVMALLGVGLAYWRPGTIFDIIEFAFVGLGATLGLPLAFLVLWPRTTGAGVFAAVAAGLGSAVGNLYLSPATFPILVWPITLTAFLGASYATAPSSPVTASSS” it was “failed”; in that of “MSIIAFLSYVIMTSITPGPSNILMMNEAQRFGFTGSWRFSSGILAGFAVLGILSGAFTISLYNWIPVVEPYFKLAGACYLIYLALQVGFTKNKKQDSTEARSSFISGFIFQLINIKSILFFLTVMSAFVLPFNHSLKSTIYYLALAIVLGWLALLLWSGFGSVFKRVFAKHDRVFRVLMCLLLMYSAVSIFR”, “failed”; in that of “MSIISLDTRVKVGNTDYALSELFELVDQQTSDYGTSLNALKQAVVSGDLTIIQQVLQNSAAALRSLASLQNTLEKVLTLDLADPAQPEHVFIVEDSRGATELKLYKSHYTIGKADSCDIRLHSIYASRQHATLVRFLTENGEVRYRLIDGDPETSRRSANGTYVNNRSITECDLKHYDQILFGADVKATYFYLSPQFRSLTGLQDPTVSLSPDSTTEFEA”, “failed”. The result for “MSILDTLKTPVIVAPMAGGPSTPALVNAAAEAGSLGFLAGGVMPLEQLKQELSEVKGVFGVNLFRPQTDAPKPSDIDELAGLLSSAFRQFGLDEPTVPTPDLSNGWEAKFEAVLAAKPAVFSCTFGIFSAEEFARIKATGIEAWVTVTNPEDALAAQKAGANALVVQGPEAGGHRSTWSIEVEPDERDLKTLLAAVKQAGVYLPLIAAGGLSTSADVAAILEAGASAASCGSAFLLSDEAGTSSLNREILDAAPALGLESVSSRAFSGRYARGVETRFTRSNEGLPPLYPYLNPMITSLRKVAGSAGNWDYAYCLVGVGLESIAKGSAKQILESLTPSALG” reads “failed”; that for “MSILVIGANGGVGSKLVSQLNEEHVDFTAGVRKEDQVKELENKGIKATLIDVEKNSINDLKNIFTDYDKVIFSVGSGGSTGADKTIIVDLDGAVKTIKASKEAGIKHYVMVSTYDSRREAFDASGDLKPYTIAKHYADDYLRTSDLNYTIVHPGSLTDDAGTGKIEADLYFDKAGSIPREDVATVLKEVVTSDGFNNQEFQILSGNHGVKDALKNYESLEHHHHHH”, “not failed”; that for “MSINTKENIDAIFEKLESFLKSKTVIGEPIKIGETTIIPFIDITFGLGTGGGGGKDEKGNDGTGSGAGAGAKISATAVLVIKGEQVELLPIKKAGGLEKLLDMVPELEHHHHHH”, “not failed”.

With “MSIRIKLPDGSVREFEEEASIEDVAASISCGLEHAVAGKLNGKLVDLSTPLQDGALVEIVTRDSAEGQKIVREKSRGKGRIVALDAARGLAVIGMYLQHFALNETNGSIVSGNTTLLFVLCGGISYSIMAGRMMDRGMEPAAFRTRMLARAVFIDMIGYLLIMLNTPFGVILPAYAALFVLALVLIRRSTRVLVTTAAVLLAVSPPLMILGGSVLSGANLLGDIAGGPMSALALAPAFVAGMAIGRFDLTRMRTALSLVSSGAVMLIVSKLLGVFVLPWLSRSFEEWLVSVQGTAGAEPDQYAIWPHNVAPPLWHNLLSIAPHSASTFQTMLGLGAAFLVLGMVCLVPQKISAVLKPFAGVGRVALTMYAAQFVVIWALEISGAKYDIGAIPFGDLFVAAVATVTGWLIARLPTGPLETAMRRFDRAFSNLGPVTGPARLR”, the protein production entry was “failed”.

For the sequence “MSITYSAISFSGFSPKSVPFAIHSVTRRQFLNPNTFYRFGFSPSLQGSSIEFSLQLNSRVVLSKERRSLPLVVRNDRPQNEDLPKQYTRREKKPFPVPIVDLRRAARERVKNNKDKPKRPLPPPKNGMVVKSLVPLAYKVYNARIRLINNLHRLMKVVRVNACGWCNEIHVGPYGHPFKSCKGPNTSQRKGLHEWTNSVIEDVIVPLEAYHLFDRLGKRIRHDERFSIPRVPAVVELCIQGGVEIPEFPAKRRRKPIIRIGKSEFVDADETELPDPEPQPPPVPLLTELPVSEITPPSSEEETVSLAEETLQAWEEMRAGAKKLMRMYRVRVCGYCPEVHVGPTGHKAQNCGAFKHQQRNGQHGWQSAVLDDLIPPRYVWHVPDVNGPPMQRELRSFYGQAPAVVEICAQAGAVVPEHYRATMRLEVGIPSSVKEAEMVV”, the protein production result is reported as “failed”. The result for “MSIYDPNPDQSLARIDALEKELANLKASHNTLDIQNKILKGFISLTNVSAGRMLIKATLQKTMEASIHQTGAQLGSLFLLDGDGRVTESILARGATDQSQKKNIVGQVLDKGLAGWVRENKRTGLINDTTKDYRWLKLPDEPYQALSALGVPIVWGDELLGILTLMHSQVNHFTPACATAMEKTAELIALVLNNARIQTKHKQNETLIQQEDDLLNQAILWFPSIIFILDNQGVLLKCGGKYLAQIGLDPKESIGKSIYYLLPEANELKSLTSHALANNIIESVSVQMERVDHGTWFYDAWFSPILDNHGQVSNVVCMLLPA” reads “failed”; that for “MSKCGVRARLLGLCTERASAWAMALIALVAGGLLTAALAFAAHTFYKQQLRQRFELLASERASRIAERFDEQQQRLDGLRRFFSFSSEITPREFDGYARPLLQRTLAYAWAPRVEAAQRAEFERLASAHTGPGYVIRDQDAQGQWRPASQRDHYFPVLYTQSSERPGLPYGLDLAGQSEPQAALARALAPALAPGSMAVSEPLALFDTQSAERGLLMVAPVFSDADPRGAAVGYVMALLSMRELVSDGRPVAVDDNLVVRITDPSGLQGPVVLFDSQNPVAPLALASNQLLRLADHHFQLSIQPSQAFAQANRSSAVMAVGLLGGLLSLLLSVLLYSLFSQRQRALALVAQRTAELQVSEQSLRGTHNQLRSVLDAATQVAIIATNLKGVVSTFNAGAERMLGYAASEAIGRLRLEDLVLPEELNLRAQALSLRFGRAIAGGQAMFAETVQEHGAEPGEWTLLRADGSQLVANMLVTAMLDEQGLWVGYLAICIDVTERRRVHEALAARDRLLEKLSAEVPGGIYQYRLDANGHSCFPYASMGLYDIYEIDLMQLREDASAVFERIHPDDLERVRRSVRYSAEHLSPWREEYRVCLPRAGLRWVRGEATPEVGEQGCTLWHGYLTDISDLKGVEEELRALSVTDSLTGIHNRRYFQERLKIELERAQRDGLPLAVIMLDIDHFKRINDRFGHAVGDRVLRSLCQRIAQRLRRTDVFCRLGGEEFMVLCPGSDANQARLLALELWQGVRNVPVEGVGQVTASFGVAGWRSGEGADALLLRADAGVYAAKQAGRDRVEGEPV”, “failed”; that for “MSKEDAWNMVTIYPAKQLRVDEYVGSLTPGKMADIVLWNAEPLSIYAKVTHAWVEGKRYFDREQDQLAQLEHHHHHH”, “failed”.

For the sequence “MSKEPIIKLDNIDVTFHQKKREINAVKDVTIHINQGDIYGIVGYSGAGKSTLVRVINLLQEPSAGKITIDDQVIYDNKVTLTSTQLREQRREIGMIFQHFNLMSQLTAEQNVAFALKHSGLSKEAKAAKVAKLLELVGLSDRAQNYPSQLSGGQKQRVAIARALANDPKILISDESTSALDPKTTKQILALLQDLNKKLGLTIVLITHEMQIVKDIANRVAVMQNGKLIEEGSVLDIFSHPRESLTQDFIKIATGIDEAMLKIEQQEVVKNLPVGSKLVQLKYAGHSTDEPLLNQIYKEFEVTANILYGNIEILDGIPVGEMVVILSGDEEKLRQACQAITDSQVQLTLLKEGGKA”, the protein production entry is recorded as “failed”. Consider “MSKFDGYFLRQLLVLCGFFAFVLVGVFWISKAVSLFDRLISSGQTAMVALEFTALTLPTLVRTVMPMAAFCATVYVTNRLNRESEMTVMLATGSSPFRLARPVILFGLVCAAMLATITLYLRPAAMLRLEARQAEVAGDMTAQLLNDGQFMHPVKGVTVYIGKIDRDGTLNDVYLSDRRAPERVVTYTSSKAFLARSGEQIALVMVEGTALQMETGRRTLSTTVFRDFSYDISALAKRDIERRQDIRGMPTLALATAFDGEGLAETYSRGEISEELQERLSWIGVSVAVTLIGFSTLMLGTFSRFGLWPQLIAAFAGLIALEGMRSTATAFVGSHPGLWWVQHAPALGGIALSILFLKLAGRPLRLRRYPDTGSV”, for which the protein production result is “failed”.

Consider “MSKHLCFTAFSSIALFLLCFSSWASAVAPAEINEARLVAQYNYSINILAMLLVGFGFLMVFVRRYGFSATTGTYLVVATGLPLYILLRANGIFGHALTPHSVDAVIYAEFAVATGLIAMGAVLGRLRVFQYALLALFIVPVYLLNEWLVLDNASGLTEGFQDSAGSIAIHAFGAYFGLGVSIALTTAAQRAQPIESDATSDRFSMLGSMVLWLFWPSFATAIVPFEQMPQTIVNTLLALCGATLATYFLSALFHKGKASIVDMANAALAGGVAIGSVCNIVGPVGAFVIGLLGGAISVVGFVFIQPMLESKAKTIDTCGVHNLHGLPGLLGGFSAILIVPGIAVAQLTGIGITLALALIGGVIAGALIKLTGTTKQAYEDSHEFIHLAGPEDEHKAERLVLEAKTEIQGLKNRIDAAVLSAKSEG”, for which the protein production result is given as “not failed”. As to “MSKIADDQNFNDEEENFAKLFKKELEKEETLEKGTIKEGLVVSINENDGYAMVSVGGKTEGRLALNEITDEKGQLLYQKNDPIIVHVSEKGEHPSVSYKKAISQQKIQAKIEELGENYENAIIEGKIVGKNKGGYIVESQGVEYFLSRSHSSLKNDANHIGKRVKACIIRVDKENHSINISRKRFFEVNDKRQLEVSKELLEATEPVLGVVRQITPFGIFVEAKGIEGLVHYSEISHKGPVNPEKYYKEGDEVYVKAIAYDAEKRRLSLSIKATIEDPWEEIQDKLKPGYAIKVVVSNIEHYGVFVDIGNDIEGFLHVSEISWDKNVSHPNNYLSVGQEIDVKIIDIDPKNRRLRVSLKQLTNRPFDVFESKHQVGDVLEGKVATLTDFGAFLNLGGVDGLLHNHDAFWDKDKKCKDHYKIGDVIKVKILKINKKDKKISLSAKHLVTSPTEEFAQKHKTDSVIQGKVVSIKDFGVFINADGIDVLIKNEDLNPLKKDEIKIGQEITCVVVAIEKSNNKVRASVHRLERKKEKEELQAFNTSDDKMTLGDILKEKL”, the protein production entry was “failed”. In the case of “MSKICQITGKKAMVGNNVSHSKRRTKRVFDVNLFRKKFYWVEQDCWVVLRISAAGLRLINKIGLDAAIKRAAEKGFLNALEHHHHHH” it was “not failed”.
